From US20230212319A1, “NOVEL ANTIGEN BINDING DOMAINS AND SYNTHETIC ANTIGEN RECEPTORS INCORPORATING THE SAME” (University of Southern California, priority 2020, published 2023)

B1: 21994 (protein)
chain: MALPVTALLLPLALLLHAARPQVQLVESGGGLVQPGGSLRLSCAASGFTFTNHAMSWVRQAPGKGLELVSSISGNGRTTYYADSVKGRFTISRDISKNTLDLQMNSLRAEDTAVYYCAKDGGETLVDSRGQGTLVTVSSLEDLKNVFPPEVAVFEPSEAEISHTQKATLVCLATGFYPDHVELSWWVNGKEVHSGVCTDPQPLKEQPALNDSRYCLSSRLRVSATFWQNPRNHFRCQVQFYGLSENDEWTQDRAKPVTQIVSAEAWGRADCGFTSESYQQGVLSATILYEILLGKATLYAVLVSALVLMAMVKRKDSRGRAKRSGSGATNFSLLKQAGDVEENPGPTSMDWIWRILFLVGAATGAHSFEVQLLESGGGLVQPGGSLRLSCAASGFIFSSYAMSWVRQAPGKGQEWVSGVSGTGVNTYYADSVKGRFTISRDNSKNTLYLQMNSLRAEDTAVYYCASGKGWDSGSWYEDYRGQGTLVTVSSTRIQNPDPAVYQLRDSKSSDKSVCLFTDFDSQTNVSQSKDSDVYITDKCVLDMRSMDFKSNSAVAWSNKSDFACANAFNNSIIPEDTFFPSPESSCDVKLVEKSFETDTNLNFQNLSVIGFRILLLKVAGFNLLMTLRLWSSRAKRSGSGVKQTLNFDLLKLAGDVESNPGPSRGHMTEYKPTVRLATRDDVPRAVRTLAAAFADYPATRHTVDPDRHIERVTELQELFLTRVGLDIGKVWVADDGAAVAVWTTPESVEAGAVFAEIGPRMAELSGSRLAAQQQMEGLLAPHRPKEPAWFLATVGVSPDHQGKGLGSAVVLPGVEAAERAGVPAFLETSAPRNLPFYERLGFTVTADVEVPEGPRTWCMTRKPGA
B2: 21996 (protein)
chain: MALPVTALLLPLALLLHAARPQVQLVESGGGLVQPGGSLRLSCAASGFTFTNHAMSWVRQAPGKGLELVSSISGNGRTTYYADSVKGRFTISRDISKNTLDLQMNSLRAEDTAVYYCAKDGGETLVDSRGQGTLVTVSSLEDLKNVFPPEVAVFEPSEAEISHTQKATLVCLATGFYPDHVELSWWVNGKEVHSGVCTDPQPLKEQPALNDSRYCLSSRLRVSATFWQNPRNHFRCQVQFYGLSENDEWTQDRAKPVTQIVSAEAWGRADCGFTSESYQQGVLSATILYEILLGKATLYAVLVSALVLMAMVKRKDSRGRAKRSGSGATNFSLLKQAGDVEENPGPTSMDWIWRILFLVGAATGAHSFEVQLLESGGGLVQPGGSLRLSCAASGFIFSIYAMSWVRQAPGKGLEWVSGISGSGVNTYYAHSVKGRFIISRDNSRNTVYLQMNSLRADDTAVYHCANGKGWDGNTWYEDYRGQGTLVTVSSTRIQNPDPAVYQLRDSKSSDKSVCLFTDFDSQTNVSQSKDSDVYITDKCVLDMRSMDFKSNSAVAWSNKSDFACANAFNNSIIPEDTFFPSPESSCDVKLVEKSFETDTNLNFQNLSVIGFRILLLKVAGFNLLMTLRLWSSRAKRSGSGVKQTLNFDLLKLAGDVESNPGPSRGHMTEYKPTVRLATRDDVPRAVRTLAAAFADYPATRHTVDPDRHIERVTELQELFLTRVGLDIGKVWVADDGAAVAVWTTPESVEAGAVFAEIGPRMAELSGSRLAAQQQMEGLLAPHRPKEPAWFLATVGVSPDHQGKGLGSAVVLPGVEAAERAGVPAFLETSAPRNLPFYERLGFTVTADVEVPEGPRTWCMTRKPGA

Tested on: L363 cells
Experiment: JNG assay, co-culture with L363 cells
Type: cell-based
Conditions: co-culture with L363
Protocol: Cellular supernatant is collected and assayed for the induction of cytokines (e.g., IL2).
JNG (Jurkat cells expressing EGFP under an NFAT promoter) were infected with lentiviral vectors encoding different single chain and multi-chain SARs by spinfection in the presence of 8 µg/ml of Polybrene® (Sigma, Catalog no. H9268). The Jurkat-NFAT-GFP cells are engineered in such a way that the IL-2 promoter, which carries NFAT binding sites, is cloned upstream of the GFP gene. These cells have been used to study signaling via TCR and CAR. The different SARs were stably expressed in Jurkat NFAT-GFP cells by lentiviral mediated gene transfer, followed by selection with puromycin or blasticidin. No drug selection was used in case the construct lacked an antibiotic resistance gene. The SAR-expressing Jurkat-NFAT-GFP cells were cocultured with the target cells at E:T ratio of approximately 1:2 for approximately 4 hours to 18 hours. When the interaction between SIRs and their target antigen results in activation of the NFAT pathway, GFP expression is induced. […] GFP expression was monitored by FACS analysis. The Jurkat-NFAT-GFP (parental) cells were used as control. The structure of different constructs can be determined based on their names. […] The sequence of the other constructs in the table can be similarly determined from their names and by referring to the different Tables of this disclosure that provide the names and SEQ ID NO of the different modules. Alternatively, the composition and modular architecture of the different SAR constructs can be determined from their sequences by bioinformatics tools, including using nucleic acid and amino acids homology searches. A SAR is considered positive in the assay in case the SAR expressing Jurkat-NFAT-GFP cells show greater % GFP positive cells when cultured with the target cell line as compared to parental Jurkat-NFAT-GFP cells. […] In general, the number +/-, +, 2+, 3+, 4+, 5+ refer to approximately 5%, 10%, 20%, 30%, 40% and 50% GFP positive cells. The % of GFP induction in the above assay is dependent not only the relative strength of the SAR but also, among other factors, on the relative level of expression of the SAR in the JNG cells and the relative level of expression of the target antigen in the target cell line. To control for the difference in gene transduction efficiency of the different SAR constructs, the experiment was conducted with JNG cells transduced with SAR constructs co-expressing a drug resistance gene (e.g., puromycin or PAC) followed by drug selection to generate a stable population of SAR-expressing cells. It is to be noted that the drug resistance gene (e.g., PAC) in the SAR constructs is optional and in vivo studies were conducted with SAR constructs lacking the PAC gene.

Molecule	NFAT-GFP ASSAY: L363
B1	L363 (+) (refer to approximately 5%, 10%, 20%, 30%, 40% and 50% GFP positive cells)
B2	L363 (+) (refer to approximately 5%, 10%, 20%, 30%, 40% and 50% GFP positive cells)
